Results: patent US20230129258A1, “HETEROTANDEM BICYCLIC PEPTIDE COMPLEXES” (BicycleTx Limited, priority 2019, published 2023)
Each block holds one binder with its values, some of them ahead of it. Starred links: 1 amine or outer side, 2 acyl side, 3 side chain; linkers in the order of their positions; H or OH if unused. Positions of bridges follow the written chain, without caps; N, C: chain ends. Non-standard residues stand in square brackets, D forms with d. Chains are numbered I, II in the order given. No end group written: not given here. *: point of attachment. TATA = O=C(CC[*:1])N1CN(C(=O)CC[*:2])CN(C(=O)CC[*:3])C1; Hyp = O=C(O)[C@@H]1C[C@@H](O)CN1; hArg = N=C(N)NCCCC[C@H](N)C(=O)O; tBuAla = CC(C)(C)C[C@H](N)C(=O)O; dK(PYA) = not defined here; Nle = CCCC[C@H](N)C(=O)O; Pent4ynoyl = C#CCCC(=O)*

Molecular target: CD137 on Jurkat reporter cells (Promega kit CS196005) (UniProt Q07011)
Sequence (Q07011 24-255 limits assumed): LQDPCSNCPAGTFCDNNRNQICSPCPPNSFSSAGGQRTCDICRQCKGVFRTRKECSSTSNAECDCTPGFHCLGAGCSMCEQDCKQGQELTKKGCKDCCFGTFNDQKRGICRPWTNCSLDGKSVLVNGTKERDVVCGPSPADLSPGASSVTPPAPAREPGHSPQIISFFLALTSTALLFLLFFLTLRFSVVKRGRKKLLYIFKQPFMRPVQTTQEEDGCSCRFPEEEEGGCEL
Assay: cell-based or functional assay

B1: BCY12976 (peptide)
peptide 1: Ac-A[hArg]DC[Hyp]LVNPLCKHP[dD]W[hArg]C
peptide 2: Ac-C[tBuAla]PE[dK(PYA)]PYCFADPY[Nle]CA
modifications: linker I:4-I:11-I:18, II:1-II:8-II:15 via TATA; linker I:12-II:5 via N‑(acid-PEG3)‑N‑bis(PEG3-azide); reading uncertain; also: two CD137 bicycles per complex (EphA2:CD137 1:2)
EC50 (nM), PC3 co-culture: 0.18 nM | Emax (fold induction over background), PC3 (fold over background): 73.2

B5: BCY12975 (peptide)
peptide 1: Ac-A[hArg]DC[Hyp]KVNPLCLHP[dD]W[hArg]C
peptide 2: Ac-C[tBuAla]PE[dK(PYA)]PYCFADPY[Nle]CA
modifications: linker I:4-I:11-I:18, II:1-II:8-II:15 via TATA; linker I:6-II:5 via N‑(acid-PEG3)‑N‑bis(PEG3-azide); reading uncertain; also: two CD137 bicycles per complex (EphA2:CD137 1:2)
EC50 (nM), PC3 co-culture: 0.16 nM | Emax (fold induction over background), PC3 (fold over background): 68.8

B7: BCY12973 (peptide)
peptide 1: Ac-A[hArg]DC[Hyp]LVNPLCLHP[dD]W[hArg]CK
peptide 2: Ac-C[tBuAla]PE[dK(PYA)]PYCFADPY[Nle]CA
modifications: linker I:4-I:11-I:18, II:1-II:8-II:15 via TATA; linker I:19-II:5 via N‑(acid-PEG3)‑N‑bis(PEG3-azide); reading uncertain; also: two CD137 bicycles per complex (EphA2:CD137 1:2)
EC50 (nM), PC3 co-culture: 0.16 nM | Emax (fold induction over background), PC3 (fold over background): 48.6

Further lines, results first:

Fold Improvement over BCY9173, EC50, PC3: 7.14 fold | Fold Improvement over Emax (BCY9173), PC3: 0.94 fold
B2: BCY14335 (peptide)
peptide 1: {Palmitoyl‑Glu‑LysN3-Pent4ynoyl}-A[hArg]DC[Hyp]LVNPLCLKP[dD]W[hArg]C
peptide 2: Ac-C[tBuAla]PE[dK](Pent4ynoyl)PYCFADPY[Nle]CA
modifications: linker I:4-I:11-I:18, II:1-II:8-II:15 via TATA (inferred); not fully specified; also: 1:2 complex: chain 1 Lys ('Lys 8') joined to dLys(PYA)5 of two chain 2 copies via N-(acid-PEG3)-N-bis(PEG3-azide) linker

Fold Improvement over BCY9173, EC50, PC3: 7.21 fold | Fold Improvement over Emax (BCY9173), PC3: 1.62 fold
B3: BCY14334 (peptide)
peptide 1: A[hArg]DC[Hyp]LVNPLCLKP[dD]W[hArg]C
peptide 2: Ac-C[tBuAla]PE[dK](Pent4ynoyl)PYCFADPY[Nle]CA
modifications: linker I:4-I:11-I:18 via TATA; linker II:1-II:8-II:15 via TATA (inferred); not fully specified (some residues); also: N-(acid-PEG3)-N-bis(PEG3-azide) linker at chain 1 N-terminus, joined to dLys(PYA)4 of two BCY8928 chains (1:2 complex)

EC50 (nM), PC3 co-culture: 0.08 nM | Emax (fold induction over background), PC3 (fold over background): 71.6
B4: BCY12979 (peptide)
peptide 1: A[hArg]DC[Hyp]LVNPLCLHP[dD]W[hArg]C
peptide 2: Ac-C[tBuAla]PE[dK(PYA)]PYCFADPY[Nle]CA
modifications: linker I:4-I:11-I:18, II:1-II:8-II:15 via TATA; not fully specified (bridges); reading uncertain; also: two CD137 bicycles per complex (EphA2:CD137 1:2)

EC50 (nM), PC3 co-culture: 0.08 nM | Emax (fold induction over background), PC3 (fold over background): 67.2
B6: BCY12977 (peptide)
peptide 1: A[hArg]DC[Hyp]LVNPLCLHP[dE]W[hArg]C
peptide 2: Ac-C[tBuAla]PE[dK(PYA)]PYCFADPY[Nle]CA
modifications: linker I:4-I:11-I:18, II:1-II:8-II:15 via TATA; linker II:N-II:5 via N‑(acid-PEG3)‑N‑bis(PEG3-azide); reading uncertain; also: two CD137 bicycles per complex (EphA2:CD137 1:2)
